According to patent EP4696329A1 (BioRay Pharmaceutical Co., Ltd., dated 2024):
Where two headings read alike, the source gives them in different places. Each block holds one binder with its values, some of them ahead of it.

How the values were obtained:
[1] = molecular target: T1, human ROR2 protein (hROR2, Kactus Biosystems, Cat. No. ROR-HM402) (human, UniProt Q01974 34-403, limits assumed); assay: ELISA, plate coated with hROR2
[2] = molecular target: T2, human ROR1 expressed on cells (MDA-MB-231, Jeko-1, PA-1, HCC1187) (human, UniProt Q01973 30-937); assay: flow cytometry on Jeko-1 cells
T2 construct: also called hROR1

[3] = molecular target: T2, human ROR1 expressed on cells …; assay: flow cytometry on MDA-MB-231 cells
[4] = molecular target: T2, human ROR1 expressed on cells …; assay: flow cytometry on MDA-MB-231 cells; remark: listed apart in the source
[5] = molecular target: T3, human ROR1 protein (recombinant ROR1 antigen, Kactus Biosystems) (human, UniProt Q01973 30-406, limits assumed); assay: binding to ROR1 (column 'Binding to ROR1'; method not described)
[6] = molecular target: T3, human ROR1 protein (recombinant ROR1 …); assay: BLI (Octet R8), antibody captured on AHC sensor, ROR1 antigen as analyte
[7] = molecular target: T3, human ROR1 protein (recombinant ROR1 …); assay: as above; remark: listed apart in the source
[8] = molecular target: T2, human ROR1 expressed on cells …; assay: flow cytometry on PA-1 cells
[9] = molecular target: T1, human ROR2 protein (hROR2, Kactus …); assay: ELISA, plate coated with hROR2; remark: listed apart in the source
[10] = molecular target: T2, human ROR1 expressed on cells …; assay: flow cytometry on Jeko-1 cells; remark: listed apart in the source
[11] = molecular target: T1, human ROR2 protein (hROR2, Kactus …); assay: ELISA, plate coated with hROR2; remark: listed apart in the source
[12] = molecular target: T2, human ROR1 expressed on cells …; assay: flow cytometry on MDA-MB-231 cells; remark: listed apart in the source
[13] = molecular target: T3, human ROR1 protein (recombinant ROR1 …); assay: BLI (Octet R8), antibody captured on AHC sensor, ROR1 antigen as analyte; remark: listed apart in the source
[14] = molecular target: T3, human ROR1 protein (recombinant ROR1 …); assay: BLI (Octet R8)
[15] = molecular target: T1, human ROR2 protein (hROR2, Kactus …); assay: ELISA, plate coated with hROR2; remark: listed apart in the source
[16] = molecular target: T2, human ROR1 expressed on cells …; assay: flow cytometry on MDA-MB-231 cells; remark: listed apart in the source
[17] = molecular target: T3, human ROR1 protein (recombinant ROR1 …); assay: binding to ROR1 (column 'Binding to ROR1'; method not described); remark: listed apart in the source
[18] = molecular target: T3, human ROR1 protein (recombinant ROR1 …); assay: BLI (Octet R8), antibody captured on AHC sensor, ROR1 antigen as analyte; remark: listed apart in the source

T1 sequence (Q01974 34-403 limits assumed): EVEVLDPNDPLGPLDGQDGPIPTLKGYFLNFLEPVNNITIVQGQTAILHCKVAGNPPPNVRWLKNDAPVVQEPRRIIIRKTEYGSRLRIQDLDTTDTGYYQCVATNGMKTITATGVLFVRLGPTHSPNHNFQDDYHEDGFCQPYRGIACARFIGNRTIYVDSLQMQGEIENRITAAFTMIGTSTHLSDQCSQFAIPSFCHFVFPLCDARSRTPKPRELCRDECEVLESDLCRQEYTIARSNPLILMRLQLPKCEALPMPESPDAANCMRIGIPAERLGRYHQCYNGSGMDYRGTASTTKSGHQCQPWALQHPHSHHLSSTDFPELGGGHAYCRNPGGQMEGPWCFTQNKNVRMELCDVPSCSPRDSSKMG
T2 sequence (Q01973 30-937 limits assumed): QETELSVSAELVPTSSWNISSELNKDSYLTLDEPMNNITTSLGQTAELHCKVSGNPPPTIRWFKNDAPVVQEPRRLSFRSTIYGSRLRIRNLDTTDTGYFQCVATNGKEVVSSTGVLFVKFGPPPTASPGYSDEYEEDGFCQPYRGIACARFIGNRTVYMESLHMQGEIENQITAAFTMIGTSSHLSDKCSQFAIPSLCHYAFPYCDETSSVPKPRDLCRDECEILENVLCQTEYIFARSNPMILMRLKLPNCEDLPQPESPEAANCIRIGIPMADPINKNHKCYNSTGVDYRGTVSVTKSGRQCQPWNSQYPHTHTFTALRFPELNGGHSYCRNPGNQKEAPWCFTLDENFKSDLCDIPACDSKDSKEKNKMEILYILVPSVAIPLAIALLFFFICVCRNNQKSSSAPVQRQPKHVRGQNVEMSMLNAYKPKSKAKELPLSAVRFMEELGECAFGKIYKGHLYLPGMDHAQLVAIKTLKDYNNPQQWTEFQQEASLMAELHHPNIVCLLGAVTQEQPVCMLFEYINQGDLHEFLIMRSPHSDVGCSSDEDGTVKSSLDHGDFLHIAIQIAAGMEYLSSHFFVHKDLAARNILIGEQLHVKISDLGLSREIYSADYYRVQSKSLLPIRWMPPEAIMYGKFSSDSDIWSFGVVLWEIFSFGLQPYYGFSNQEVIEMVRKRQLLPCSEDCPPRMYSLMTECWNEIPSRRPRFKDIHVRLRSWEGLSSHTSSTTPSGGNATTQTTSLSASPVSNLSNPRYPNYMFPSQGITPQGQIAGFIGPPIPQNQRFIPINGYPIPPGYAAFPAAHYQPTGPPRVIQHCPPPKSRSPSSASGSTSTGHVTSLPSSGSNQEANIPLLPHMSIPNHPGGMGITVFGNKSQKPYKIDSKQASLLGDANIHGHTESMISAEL
T3 sequence (Q01973 30-406 limits assumed): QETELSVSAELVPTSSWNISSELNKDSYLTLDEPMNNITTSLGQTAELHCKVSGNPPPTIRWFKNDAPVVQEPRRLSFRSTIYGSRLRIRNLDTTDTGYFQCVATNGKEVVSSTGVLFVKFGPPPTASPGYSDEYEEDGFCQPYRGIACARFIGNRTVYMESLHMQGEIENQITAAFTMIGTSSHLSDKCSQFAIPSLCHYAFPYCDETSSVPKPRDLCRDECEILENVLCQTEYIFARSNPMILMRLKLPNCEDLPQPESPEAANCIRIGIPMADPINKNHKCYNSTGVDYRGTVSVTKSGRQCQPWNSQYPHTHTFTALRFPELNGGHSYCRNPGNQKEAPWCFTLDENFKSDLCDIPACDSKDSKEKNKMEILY

EC50 [2]: 0.005 µg/mL
EC50 [3]: 0.02 µg/mL
EC50 [4]: 0.03 µg/mL
EC50 [5]: 0.01 µg/mL
Kd [6]: 9.82 nM
Kd [7]: 18 nM
B1: YR-8 (antibody, human IgG1, kappa, V domains shown)
VH: QVQLQESGPGLVKPSETLSLTCTVSGFSLTRYGVHWIRQPPGKGLEWLGVIWAGGFTNYNSDLKSRLTISKDNSKNQVSLKLSSVTAADTAVYYCARRGDSYSMKYWGQGTLVTVSS
VL: EIVLTQSPATLSLSPGERATLSCSASSQVSYIHWYQQKPGQAPRPWIYETSKLASGIPARFSGSGSGTDYTLTISSLEPEDFAVYYCQQWNYPLITFGQGTKLEIKR
binding result [1]: no binding (tested: starting from 333.33 nM)

binding result [1]: binds
EC50 [2]: 0.007 µg/mL
EC50 [3]: 0.02 µg/mL
Kd [6]: 7.63 nM
B2: YR-11 (antibody, human IgG1, kappa, V domains shown)
VH: QVQLQESGPGLVKPSETLSLTCTVSGFSLTRYGVHWIRQPPGKGLEWIGVIWAGGFTNYNSALKSRVTISKDNSKNQVSLKLSSVTAADTAVYYCARRGNEYSMSYWGQGTLVTVSS
VL: EIVLTQSPATLSLSPGERATLSCSASSQVSYIHWYQQKPGQAPRPWIYETSKLASGIPARFSGSGSGTDYTLTISSLEPEDFAVYYCQQWNYPLITFGQGTKLEIKR

EC50 [8]: 0.25 nM
MFI fold [8]: 2.6 fold
EC50 [10]: 0.15 nM
MFI fold [10]: 3.6 fold
EC50 [4]: 0.05 µg/mL
EC50 [5]: 0.01 µg/mL
Kd [7]: 19 nM
B3: YR-8-ES (antibody, human IgG1, kappa, V domains shown)
VH: QVQLQESGPGLVKPSETLSLTCTVSGFSLTRYGVHWIRQPPGKGLEWLGVIWAGGFTNYESDLKSRLTISKDNSKNQVSLKLSSVTAADTAVYYCARRGDSYSMKYWGQGTLVTVSS
VL: EIVLTQSPATLSLSPGERATLSCSASSQVSYIHWYQQKPGQAPRPWIYETSKLASGIPARFSGSGSGTDYTLTISSLEPEDFAVYYCQQWNYPLITFGQGTKLEIKR
notes: YR-8 with N60E (Kabat) in the heavy chain; human IgG1 / kappa
binding result [9]: no binding (tested: starting from 333.33 nM)

binding result [1]: binds
EC50 [2]: 0.01 µg/mL
EC50 [3]: 0.06 µg/mL
Kd [6]: 11.3 nM
B4: YR-10 (antibody, human IgG1, kappa, V domains shown)
VH: QVQLQESGPGLVKPSETLSLTCTVSGFSLTRYGVHWIRQPPGKGLEWIGVIWAGGFTNYNSTLKSRVTISKDNSKNQVSLKLSSVTAADTAVYYCARRGNQYSMKYWGQGTLVTVSS
VL: EIVLTQSPATLSLSPGERATLSCSASSQVSYIHWYQQKPGQAPRPWIYETSKLASGIPARFSGSGSGTDYTLTISSLEPEDFAVYYCQQWNYPLISFGQGTKLEIKR

EC50 [2]: 0.03 µg/mL
EC50 [12]: 0.0818 µg/mL
EC50 [3]: 0.09 µg/mL
Kd [13]: 32.3 nM
Kd [6]: 63.6 nM
B5: humanized antibody BRHu-3 (antibody, human IgG1, kappa, V domains shown)
VH: QVQLQESGPGLVKPSETLSLTCTVSGFSLTSYGVHWIRQPPGKGLEWLGVIWAGGFTNYNSALKSRLTISKDNSKNQVSLKLSSVTAADTAVYYCARRGSSYSMDYWGQGTLVTVSS
VL: EIVLTQSPATLSLSPGERATLSCSASSNVSYIHWYQQKPGQAPRPWIYEISKLASGIPARFSGSGSGTDYTLTISSLEPEDFAVYYCQQWNYPLITFGQGTKLEIKR
notes: humanized D10, human IgG1 / kappa
binding result [11]: no binding (tested: starting from 333.33 nM)

EC50 [12]: 0.0634 µg/mL
Kd [13]: 26.6 nM
B6: chimeric antibody ch-D10 (antibody, human IgG1, kappa, V domains shown)
VH: QVQLKESGPGLVAPSQTLSITCTVSGFSLTSYGVHWVRQPPGKGLEWLGVIWAGGFTNYNSALKSRLSISKDNSKSQVLLKMTSLQTDDTAMYYCARRGSSYSMDYWGQGTSVTVSS
VL: EIVLSQSPAITAASLGQKVTITCSASSNVSYIHWYQQRSGTSPRPWIYEISKLASGVPVRFSGSGSGTSYSLTISSMEAEDAAIYYCQQWNYPLITFGSGTKLEIQR
notes: VH/VL of murine D10 on human IgG1 / kappa constant regions
binding result [11]: no binding (tested: starting from 333.33 nM)

fold affinity against H10-hVH4-hVL4 [14]: 9 fold
EC50 [8]: 0.33 nM
MFI fold [8]: 2.5 fold
EC50 [10]: 0.031 nM
MFI fold [10]: 2.8 fold
EC50 [16]: 0.011 µg/mL
EC50 [17]: 0.0123 µg/mL
Kd [18]: 5 nM
B7: AM3-ZH3 (antibody, human IgG1, kappa, V domains shown)
VH: EVQLVESGGGLVQPGGSLRLSCAASGFTFSSYPMSWVRQAPGKGLEWVSSISTGASAYFPDSVKGRFTISRDNAKNSLYLQMNSLRAEDTAVYYCARITTSTWYMDVWGQGTTVTVSS
VL: DIQMTQSPSAMSASVGDRVTITCKASQDIYSYLSWFQQKPGKVPKTLIYRANRLVRGVPSRFSGSGSGQEYTLTISSLQPEDMATYYCLQYDEFPYTFGQGTKLEIKR
notes: human IgG1 / kappa
binding result [15]: no binding (tested: starting from 333.33 nM)
